From US20060270596A1 (CENTRE NATIONAL DE LA RECHERCHE SCIENTIFIQUE CNRS, published 2006)

T1: THAP1 chemokine-binding domain/IgG1-Fc fusion constructed as described in Example 18B (THAP1 amino acids … (human, UniProt Q5RCE4 140-213 (Pongo abelii entry)))
T1 construct: Secreted with an immunoglobulin kappa light chain signal peptide (left out); also called Chemotrap-I; Chemotrap; not shown: human IgG1-Fc polypeptide from the N-terminal hinge region to the native C-terminus (hinge, CH2, CH3)
T1 sequence: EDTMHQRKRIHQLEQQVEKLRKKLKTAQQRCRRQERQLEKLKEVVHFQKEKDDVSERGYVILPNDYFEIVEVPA

T2: human THAP1 (THanatos-Associated-Protein-1), full length (human, UniProt Q9NVV9 1-213)
T2 construct: these tags are not written into the chain; also called hTHAP1; THAP1 wild type
T2 sequence: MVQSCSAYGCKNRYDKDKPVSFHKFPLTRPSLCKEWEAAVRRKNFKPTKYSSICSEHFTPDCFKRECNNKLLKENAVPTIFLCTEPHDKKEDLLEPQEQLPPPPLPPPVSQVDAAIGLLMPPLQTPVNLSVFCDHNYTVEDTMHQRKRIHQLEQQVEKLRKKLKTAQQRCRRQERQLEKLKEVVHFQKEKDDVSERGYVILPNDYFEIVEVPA

T3: human THAP3, full length (human, UniProt Q8WTV1 1-239)
T3 construct: Two-hybrid fusion or 35S-labelled in vitro translation product
T3 sequence: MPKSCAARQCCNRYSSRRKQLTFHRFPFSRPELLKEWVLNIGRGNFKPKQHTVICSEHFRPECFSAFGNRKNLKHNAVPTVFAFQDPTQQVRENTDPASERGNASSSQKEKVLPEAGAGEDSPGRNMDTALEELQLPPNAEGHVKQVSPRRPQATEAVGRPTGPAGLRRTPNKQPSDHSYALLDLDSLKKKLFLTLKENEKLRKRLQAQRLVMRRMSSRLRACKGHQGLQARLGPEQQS

T4: THAP1-C2 deletion mutant (amino acids 120-213) (human, UniProt Q9NVV9 120-213)
T4 construct: Gal4 fusion, in vitro translation product or GFP fusion according to assay
T4 sequence: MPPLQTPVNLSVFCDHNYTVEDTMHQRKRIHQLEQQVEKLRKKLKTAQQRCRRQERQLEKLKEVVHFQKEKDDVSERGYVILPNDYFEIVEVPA

T5: THAP1-C3 deletion mutant (amino acids 143-213) (human, UniProt Q9NVV9 143-213)
T5 construct: Gal4 fusion, in vitro translation product or GFP fusion according to assay
T5 sequence: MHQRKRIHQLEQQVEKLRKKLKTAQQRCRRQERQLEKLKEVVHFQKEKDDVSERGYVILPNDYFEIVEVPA

T6: THAP1-N1 deletion mutant (amino acids 1-90) (human, UniProt Q9NVV9 1-90)
T6 construct: Gal4 fusion, in vitro translation product or GFP fusion according to assay; also called zinc finger domain of THAP1
T6 sequence: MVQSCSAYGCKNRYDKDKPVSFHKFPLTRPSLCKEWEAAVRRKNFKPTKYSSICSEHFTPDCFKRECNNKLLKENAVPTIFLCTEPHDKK

T7: THAP1-N2 deletion mutant (amino acids 1-166) (human, UniProt Q9NVV9 1-166)
T7 construct: Gal4 fusion, in vitro translation product or GFP fusion according to assay
T7 sequence: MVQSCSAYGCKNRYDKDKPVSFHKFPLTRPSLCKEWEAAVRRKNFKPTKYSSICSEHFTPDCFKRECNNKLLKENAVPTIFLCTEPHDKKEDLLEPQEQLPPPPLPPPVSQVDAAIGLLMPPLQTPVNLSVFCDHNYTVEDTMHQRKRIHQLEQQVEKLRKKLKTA

T8: THAP1-N3 deletion mutant (amino acids 1-192) (human, UniProt Q9NVV9 1-192)
T8 construct: Gal4 fusion, in vitro translation product or GFP fusion according to assay
T8 sequence: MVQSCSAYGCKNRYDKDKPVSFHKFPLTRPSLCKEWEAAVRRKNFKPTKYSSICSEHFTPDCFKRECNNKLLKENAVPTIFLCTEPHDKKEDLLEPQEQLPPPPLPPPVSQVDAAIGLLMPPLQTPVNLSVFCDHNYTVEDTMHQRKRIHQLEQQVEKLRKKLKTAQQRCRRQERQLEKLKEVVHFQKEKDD

T9: THAP1-C1 deletion mutant (amino acids 90-213) (human, UniProt Q9NVV9 90-213)
T9 construct: Gal4 fusion, in vitro translation product or GFP fusion according to assay; also called THAP1-CL; THAP1ΔTHAP
T9 sequence: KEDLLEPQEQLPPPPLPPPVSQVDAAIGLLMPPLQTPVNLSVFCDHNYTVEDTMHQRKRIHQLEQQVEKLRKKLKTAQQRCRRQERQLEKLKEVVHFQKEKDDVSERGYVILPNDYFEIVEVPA

T10: THAP1ΔQRCRR mutant (deletion of residues 168-172) (human, UniProt Q9NVV9 1-213)
T10 sequence: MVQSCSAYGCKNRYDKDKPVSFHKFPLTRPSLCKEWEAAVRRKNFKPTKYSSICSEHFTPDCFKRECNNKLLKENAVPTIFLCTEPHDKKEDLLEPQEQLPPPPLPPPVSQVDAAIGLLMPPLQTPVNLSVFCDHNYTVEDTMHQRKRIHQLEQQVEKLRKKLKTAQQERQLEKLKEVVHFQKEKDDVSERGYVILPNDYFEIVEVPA


What was measured:
[1] = biological target: T1, THAP1 chemokine-binding domain/IgG1-Fc …; assay: SPR (Biacore 3000); Fc fusion amine-coupled to a C1 sensor chip, Rantes/CCL5 as analyte at 25, 50, 100 and 200 nM; KD=kd/ka
Text: (§1) In this Example, surface plasmon resonance (SPR) was used to determine the dissociation constant for the binding of Rantes/CCL5 to a THAP1 chemokine binding domain/IgG1-Fc fusion prepared as described in Example 18B. All SPR measurements were made using a Biacore 3000 system (Biacore, Uppsala Sweden). […] Dextran layer free biosensors, C1 type, were used to assay specific interaction between Rantes/CCL5 and the THAP1 chemokine-binding domain/IgG1-Fc fusion. Purified recombinant human Rantes/CCL5 (purchased from Chemicon) were used as analyte protein at a fixed concentration in the fluid phase (10 mM HEPES pH 7.4, 150 mM NaCl, 3 mM EDTA, 0.005% P20 surfactant, as a running buffer), and at a constant flow of 20 μl/minute. To determine the binding kinetics, association and dissociation curves were established for several increasing concentration of chemokine: 25 nM, 50 nM, 100 nM and 200 nM for CCL5, respectively. Chemokine was injected during the association phase for 4 minutes (20 μl/minute). The dissociation phase was carried out over a period of 5 minutes. Between each phase of association-dissociation, the flow cells were regenerated by injection of 0.05% SDS (30 seconds at a flow rate of 20 μl/minute). Biaevaluation (Biacore) software was used for calculations of association and dissociation kinetic constants. […]
(§2) The dissociation constant was calculated to be 49 nM.

[2] = biological target: T1, THAP1 chemokine-binding domain/IgG1-Fc …; assay: surface plasmon resonance (Biacore), Chemotrap-I coupled to the chip, CCL5/RANTES at 25, 50, 100 and 200 nM as analyte
Text: as §1, §2

[3] = biological target: T2, human THAP1 …; assay: yeast two-hybrid, both orientations
Experimental: To identify potential protein partners of THAP1, screening of the two-hybrid HEVEC cDNA library was performed using as a bait the human THAP1 full length cDNA inserted into the […] two-hybrid system 3 vector pGBKT7 (Clontech). Briefly, the full-length coding region of THAP1 was amplified by PCR from HEVEC cDNA with primers 2HMR10 (5′-[…]-3′) (SEQ ID NO: 187) and 2HMR9 (5′-[…]-3′) (SEQ ID NO: 188), digested with EcoRI and BamHI, and cloned in frame downstream of the Gal4 Binding Domain (Gal4-BD) in pGBKT7 vector to generate pGBKT7-THAP1. pGBKT7-THAP1 was then cotransformed with the pGAD424-HEVEC cDNA library in yeast strain AH109 (Clontech). 1.5×10⁷ yeast transformants were screened and positive protein interactions were selected by His and Ade double auxotrophy according to manufacturer's instructions ([…] two-hybrid system 3, Clontech). The plates were incubated at 30° C. for 5 days. Plasmid DNA was extracted from these positive colonies and used to verify the specificity of the interaction by cotransformation in AH109 with pGBKT7-THAP1 or control baits pGBKT7, pGBKT7-lamin and pGBKT7-hevin. […] Positive interaction between THAP1 and Par4 was confirmed using full length Par4 bait (pGBKT-Par4) and prey (pGADT7-Par4). […]

human THAP2, full length = biological target: T11, human THAP2, full length (human, UniProt Q9H0W7 1-228); assay: yeast two-hybrid with Par-4 wild type bait
T11 construct: Two-hybrid fusion or 35S-labelled in vitro translation product
Experimental: (§3) To assess whether THAP2 and THAP3 are able to interact with Par-4, yeast two hybrid assays using Par-4 wild type bait (FIG. 10B) and in vitro GST pull down assays (FIG. 10C), were performed as described above (Examples 4 and 5). As shown in FIGS. 10B and 10C, THAP2 and THAP3 are able to interact with Par-4. A sequence alignment showing the comparison of the THAP domain and the PAR4-binding domain between THAP1, THAP2 and THAP3 is shown in FIG. 10A.

human THAP3, full length = biological target: T3, human THAP3, full length; assay: yeast two-hybrid with Par-4 wild type bait
Experimental: as §3

[4] = biological target: T4, THAP1-C2 deletion mutant (amino acids …); assay: yeast two-hybrid, Par4 wt bait
[5] = biological target: T5, THAP1-C3 deletion mutant (amino acids …); assay: yeast two-hybrid, Par4 wt bait
[6] = biological target: T6, THAP1-N1 deletion mutant (amino acids …); assay: yeast two-hybrid, Par4 wt bait
[7] = biological target: T7, THAP1-N2 deletion mutant (amino acids …); assay: yeast two-hybrid, Par4 wt bait
[8] = biological target: T8, THAP1-N3 deletion mutant (amino acids …); assay: yeast two-hybrid, Par4 wt bait
[9] = biological target: T9, THAP1-C1 deletion mutant (amino acids …); assay: yeast two-hybrid, Par4 wt bait
[10] = biological target: T10, THAP1ΔQRCRR mutant (deletion of …); assay: yeast two-hybrid, Par4 wt bait
Experimental: for mutant THAP1ΔQRCRR. The resulting PCR fragments were digested with EcoRI and BamHI, and cloned in frame downstream of the Gal4 Binding Domain (Gal4-BD) in pGBKT7 two-hybrid vector (Clontech) to generate pGBKT7-THAP1-RR/AA and -Δ(QRCRR), or downstream of the Enhanced Green Fluorescent Protein (EGFP)ORF in pEGFP.C2 vector (Clontech) to generate pEGFP.C2-THAP1-RR/AA and -Δ(QRCRR). THAP1RR/AA and THAP1ΔQRCRR THAP1 mutants were then tested in the three THAP1/Par4 interaction assays (two-hybrid assay, in vitro THAP1/Par4 interaction assay, in vivo THAP1/Par4 interaction assay) as described above for the THAP1-C1, -C2, -C3, -N1, -N2 or -N3 mutants.

T11 sequence (Q9H0W7 whole entry, the tested form may be a part): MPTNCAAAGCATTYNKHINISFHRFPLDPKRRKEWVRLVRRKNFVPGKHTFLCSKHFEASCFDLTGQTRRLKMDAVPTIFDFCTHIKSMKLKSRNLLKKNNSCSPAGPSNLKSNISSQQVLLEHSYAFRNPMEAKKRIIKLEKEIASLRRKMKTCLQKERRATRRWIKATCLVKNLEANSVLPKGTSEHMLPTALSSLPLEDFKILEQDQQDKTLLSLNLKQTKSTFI

Row | Kd [1] [nM] | koff [2] [s⁻¹] | kon [2] [M⁻¹ s⁻¹] | binding result [3] | binding result (human THAP2, full length) | binding result (human THAP3, full length) | binding result [4] | binding result [5] | binding result [6] | binding result [7] | binding result [8] | binding result [9] | binding result [10] | Binder
1 | 49 | 0.00229 | 46400 |  |  |  |  |  |  |  |  |  |  | purified recombinant human Rantes/CCL5 (purchased from Chemicon) (ligand, Bought protein; also called recombinant Rantes/CCL5 human chemokine) SPYSSDTTPCCFAYIARPLPRAHIKEYFYTSGKCSNPAVVFVTRKNRQVCANPEKKWVREYINSLEMS
2 |  |  |  | binds | binds | binds | binds | binds | no binding | no binding | binds | binds | no binding | human prostate apoptosis response-4 (PAR4), full length (other, Gal4-BD or Gal4-AD fusion in two-hybrid; also called Par4 wild type) MATGGYRTSSGLGGSTTDFLEEWKAKREKMRAKQNPPGPAPPGGGSSDAAGKPPAGALGTPAAAAANELNNNLPGGAPAAPAVPGPGGVNCAVGSAMLTRAPPARGPRRSEDEPPAASASAAPPPQRDEEEPDGVPEKGKSSGPSARKGKGQIEKRKLREKRRSTGVVNIPAAECLDEYEDDEAGQKERKREDAITQQNTIQNEAVNLLDPGSSYLLQEPPRTVSGRYKSTTSVSEEDVSSRYSRTDRSGFPRYNRDANVSGTLVSSSTLEKKIEDLEKEVVTERQENLRLVRLMQDKEEMIGKLKEEIDLLNRDLDDIEDENEQLKQENKTLLKVVGQLTR
